The nature of this data set: yeast display, Sf9 membrane polyspecificity reagent, FACS + sequencing; frameworks hold sequencing errors. The essentials: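 In a synthetic yeast display library (Saccharomyces cerevisiae BJ5465), nanobody expression was induced with galactose for 36–48 hours. FACS gates were set low and high (top ~1%) using anti-HA fluorescence for expression and streptavidin fluorescence for binding of the Sf9 membrane reagent. Each polyreactivity label is drawn from the gate of origin.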
As to “QVQLVESGGGLVQAGGSLRLSCAASGRTFRGYAMGWYRQAPGKERELVAAITSGGSTNYADSVKGRFTISRDNAKNTVYLQMNSLKPEDTAVYYCAAGRSTGQYRYYYWGQGTQVTVSS”, the “polyreactivity (PSR sort gate)” value is “high polyreactivity”.

As to “QVQLVESGGGLVQAGGSLRLSCAASGRTFRGYAMGWYRQAPGKERELVAAITWSGGRTYYADSVKGRFTISRDNAKNTVYLQMNSLKPEDTAVYYCATSPGRWGWGYDYEYWGQGTQVTVSS”, the “polyreactivity (PSR sort gate)” value was “low polyreactivity”.

Turning to “QVQLVESGGGLVQAGGSLRLSCAASGRTFRGYSMGWYRQAPGKERELVAAISTNGGSTRYADSVKGRFTISRDNSKNTVYLQMNSLKPEDTAVYYCARRDYWGQGTQVTVSS”, the “polyreactivity (PSR sort gate)” value was “high polyreactivity”.

For the sequence “QVQLVESGGGLVQAGGSLRLSCAASGRTFRHNALGWYRQAPGKERELVAAISKSGGRTYYADSVKGRFTISRDNAKNTVYLQMNSLKPEDTAVYYCAAPLYVSTSGEVGYWGQGTQVTVSS”, the “polyreactivity (PSR sort gate)” value is reported as “high polyreactivity”.

As for “QVQLVESGGGLVQAGGSLRLSCAASGRTFRINAMGWYRQAPGKERELVAAINDGGDTYADSVKGRFTISRDNANNTVYLQMNSLKPEDTAVYYCAAPLGGGARWGRWWLYDSWGQGTQVTVSS”, the “polyreactivity (PSR sort gate)” value is on record as “low polyreactivity”.

On to “QVQLVESGGGLVQAGGSLRLSCAASGRTFRINAMGWYRQAPGKERELVAAITRGDTNYADSVKGRFTISRDNAKNTVYLQMNSLKPEDTAVYYCNADLSVRYPVFRELDYWGQGTQVTVSS”, for which the “polyreactivity (PSR sort gate)” value is reported as “low polyreactivity”.

Turning to “QVQLVESGGGLVQAGGSLRLSCAASGRTFRIYAMGWYLQAPGKERELVAPISGRGGNTYYADSVKGRFTISRDNAKNTVYLHMNSLKPEDTAVYYCAADDATAYRVDGFKYDYWGQGTLVTVSS”, the “polyreactivity (PSR sort gate)” value is recorded as “high polyreactivity”.

On to “QVQLVESGGGLVQAGGSLRLSCAASGRTFRIYAMGWYRQAPGKERELVAAIRWSGGTTYYADSVKGGFTISRDNAKNTVYLQMNSLNPDDTAVYYCAADSTNRYDYWGQGTQVTVSS”, for which the “polyreactivity (PSR sort gate)” value is “high polyreactivity”.

As to “QVQLVESGGGLVQAGGSLRLSCAASGRTFRKNTMGWYRQAPGKEREFVATISSRGGSTFYADSVKGRFTISRDNAKNTVYLQMNSLKPEDTAVYYCNAVYRYSLKPIYDYWGQGTQVTVSS”, the “polyreactivity (PSR sort gate)” value is recorded as “high polyreactivity”.

With “QVQLVESGGGLVQAGGSLRLSCAASGRTFRKYAMGGYRHAPGKEREFVASITWSGGSTYYADSVKGRFTISRDNAKNTVYLQMNSLKPEDTAVYFCAAESWFKYVYWGQGTQVTVSS”, the “polyreactivity (PSR sort gate)” value is “low polyreactivity”.

For “QVQLVESGGGLVQAGGSLRLSCAASGRTFRKYAMGWYRQAPGKERELVAAINRGGTTKYADSVKGRFTISRDNAKNTVYLEMNSLKPEDTAVYYCAVDRQRAGYPKQYDSWGQGTQVTVSS”, the “polyreactivity (PSR sort gate)” value was “low polyreactivity”.

Consider “QVQLVESGGGLVQAGGSLRLSCAASGRTFRKYTMGWYRQAPGKERELVAASASRGGSTYYADSVKGRFTISRDNAKNTVYLQMNSLKPEDTAVYYCATDYITPSSDGDYWGQGTQVTVSS”, for which the “polyreactivity (PSR sort gate)” value is reported as “high polyreactivity”.

“QVQLVESGGGLVQAGGSLRLSCAASGRTFRLYAMGWYRQAPGKERELVAAITRGGRTNYADSVKGRFTISRDNAKNTVYLQMYSLKPEDTAVYYCARDFVAYGDDYWGQGTQVTVSS”: the “polyreactivity (PSR sort gate)” value is listed as “low polyreactivity”.

For the sequence “QVQLVESGGGLVQAGGSLRLSCAASGRTFRLYAMGWYRQAPGKERELVARISRGGSTYYADSVKGRFTISRDNAKNTVYLQMNSLKPEDTAVYYCAAEGWGLSHRYDYWGQGTQVTVSS”, the “polyreactivity (PSR sort gate)” value is “high polyreactivity”.

On to “QVQLVESGGGLVQAGGSLRLSCAASGRTFRNYAMGWYRQAPGKERELVAAIRSGVRTYYADSVKGRFTISRDNAKNTVYLQMNSLKPEDTAVYYCAVATGLLYKSHGYWGQGTQVTVSS”, for which the “polyreactivity (PSR sort gate)” value is “low polyreactivity”.

For the sequence “QVQLVESGGGLVQAGGSLRLSCAASGRTFRNYAMGWYRQAPGKERELVAAISSGGRTNYADSVKGRFTISRDNAKNTVYLQMNSLKPEDTADYYCAVRRGAFSTYPGYNYWGQGTQVTVSS”, the “polyreactivity (PSR sort gate)” value is listed as “high polyreactivity”.

As to “QVQLVESGGGLVQAGGSLRLSCAASGRTFRNYAMGWYRQAPGKERELVAGITSGGSTNYADSVKGRFTISRDNAKNTVYLQMNSLKPEDTAVYYCNAVRPFYWFWYYGYWGQGTQVTVSS”, the “polyreactivity (PSR sort gate)” value is on record as “low polyreactivity”.

Regarding “QVQLVESGGGLVQAGGSLRLSCAASGRTFRPYAMGWYRPAPGKERELVAAITGGTRTYYADSVKGRFTISRDNAKNTVYLQMNSLKPEDTAVYYCAKGDFFSKHDYWGQGTQVTVSS”, the “polyreactivity (PSR sort gate)” value is reported as “low polyreactivity”.

“QVQLVESGGGLVQAGGSLRLSCAASGRTFRPYAMGWYRQAPGKERELVAAISSRGSSTYYADSVKGRFTISRDNAKNTVYLQMNSLKPEDTAVYYCAARSYWGGLRYDYWGQGTQVTVSS”: the “polyreactivity (PSR sort gate)” value was “high polyreactivity”.

Take “QVQLVESGGGLVQAGGSLRLSCAASGRTFRPYAMGWYRQAPGKERELVAAITSGVSTYYADSVKGRFTISRDNAKNTVYLQMNSLKPEDTAVYYCARGYLRSYRWSYTTRMGYWVQGTQVTVSS”: the “polyreactivity (PSR sort gate)” value was “high polyreactivity”.

For the sequence “QVQLVESGGGLVQAGGSLRLSCAASGRTFRPYAMGWYRQAPGKERELVARITSGGGRTYYADSVKGRFTISRDNAKNTVYLQMNSLKPEDTAVYYCNKAIYSLYRDGYTNFDYWGQGTQVTVSS”, the “polyreactivity (PSR sort gate)” value is “high polyreactivity”.

On to “QVQLVESGGGLVQAGGSLRLSCAASGRTFRPYAMGWYRQAPGKERELVAVISYRGGSTYYADSVKGRFTISRDNAKNTVYLQMNSLKPEDTAVYYCNAQAGWFSRLYYWGQGTQVTVSS”, for which the “polyreactivity (PSR sort gate)” value is “high polyreactivity”.

For “QVQLVESGGGLVQAGGSLRLSCAASGRTFRPYTMGWYRQAPGKERELVAAISASGGRTYYADSVKGRFTISRDNAKNTVYLQMNSLKPEDTAVYYCAARVRDSLVYGGWDDYWGQGTQVTVSS”, the “polyreactivity (PSR sort gate)” value is “high polyreactivity”.

Consider “QVQLVESGGGLVQAGGSLRLSCAASGRTFRQNVMGWYRQAPGKERELVAAITASGGNTYYADSVKGRFTISRDNAKNTVYLQMNSLKPEDTAVYYCNAVPYLAMDYWGQGTQVTVSS”, for which the “polyreactivity (PSR sort gate)” value is on record as “high polyreactivity”.

In the case of “QVQLVESGGGLVQAGGSLRLSCAASGRTFRRNAMGWYREAPGKERELVASINRGGGKNYADSVKGRFTISRDNAKNTVYLQMNSLKPEDTAVYYCAAVPIAADKANGYDYWGQGTQVTVSS”, the “polyreactivity (PSR sort gate)” value is given as “low polyreactivity”.

Consider “QVQLVESGGGLVQAGGSLRLSCAASGRTFRRNVMGWYRQAPGKERELVAAISSGANTNYADSVKGRFTISRDNAKNTVYLQMNSLKPEDTAVYYCAAGEGWRSRTFDYWGQGTQVTVSS”, for which the “polyreactivity (PSR sort gate)” value is listed as “low polyreactivity”.

On to “QVQLVESGGGLVQAGGSLRLSCAASGRTFRRTAMGWYRQAPGKERELVAAISSRGGSTYYADSVKWRFTISRDNAKNTVYLQMNSLKPEDTAVYYCNRVLTPIWYYVPLYSQPTYYYWGQGTQVTVSS”, for which the “polyreactivity (PSR sort gate)” value is “high polyreactivity”.

“QVQLVESGGGLVQAGGSLRLSCAASGRTFRRYAKGWYRQAPGKERELVATIRSGDNTNYADSVKGRFTISRDNAKNTVYLQMNSLKPEDTAVYYCNRSPKSGQVTYLYSVNAHYDYWGQGTQVSVSS”: the “polyreactivity (PSR sort gate)” value is recorded as “low polyreactivity”.

Consider “QVQLVESGGGLVQAGGSLRLSCAASGRTFRRYAMGWYRQAPGKERELVAAITWGAGSTRYADSVKGRFTISRDNAKNTVYLQMNSLKPEDTAVYYCAAENTRAYGMYYWGQGTQVTVSS”, for which the “polyreactivity (PSR sort gate)” value is reported as “high polyreactivity”.

In the case of “QVQLVESGGGLVQAGGSLRLSCAASGRTFRRYAMGWYRQAPGKERELVASISRTGGSTYYADSVKGRFTISRDNSKNTVYLQMNSLKPEDTAVFYCNAGPSVGWYNYWGQGTQVTVSS”, the “polyreactivity (PSR sort gate)” value is given as “high polyreactivity”.

The record behind these values is the nanobody polyreactivity screen of Harvey et al. (2022).
